Test results published in PMC7536822, “Implications for tetraspanin-enriched microdomain assembly based on structures of CD9 with EWI-F” (Life Science Alliance, 2020).
Numbering of substitutions follows the chain as printed.

Tests used:
[1] = molecular target: T1, endogenous CD9 on HeLa cells (human (endogenous in HeLa), UniProt P21926 1-228); assay: apparent, on HeLa cells
T1 chain: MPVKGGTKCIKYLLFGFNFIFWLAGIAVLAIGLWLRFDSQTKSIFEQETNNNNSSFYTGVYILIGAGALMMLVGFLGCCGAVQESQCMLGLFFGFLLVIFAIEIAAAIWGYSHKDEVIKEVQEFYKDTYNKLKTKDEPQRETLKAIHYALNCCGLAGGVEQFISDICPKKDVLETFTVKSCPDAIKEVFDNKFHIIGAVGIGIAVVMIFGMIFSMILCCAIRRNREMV

[2] = molecular target: T2, detergent-purified, full-length CD9 (wtCD9-3xSTREP) (human, UniProt P21926 1-228); assay: ELISA; apparent, detergent-purified CD9
T2 chain: T1 chain

[3] = molecular target: T3, CD9–EWI-F_(ΔIg1-5) complex (human, UniProt P21926;Q9P2B2); assay: SEC; purified, EndoHF-treated CD9–EWI-F_(ΔIg1-5) complex incubated with a large excess of 4C8, Superdex 200 10/300 increase in 50 mM Tris pH 7.8, 150 mM NaCl, 0.08% digitonin, 4°C; SDS-PAGE of the peak; settings: both partners purified
T3 construct: human CD9 (Tspan29), wild type, full length; as m12; human EWI-F, residues T685-D879, UniprotKB Q9P2B2; as m11; Preformed complex to which 4C8 was added; source: HEK293-EBNA GNT1- cells, co-expressed, co-purified in digitonin (Strep-Tactin), EndoHF treated; not shown: Strep-II, N-terminal, kept; copies: 2 + 2

[4] = molecular target: T4, detergent-purified, full-length CD9 (wtCD9-3xSTREP) (human, UniProt P21926); assay: ELISA; 100 ng wtCD9-3Strep captured on Strep-Tactin coated wells; serial dilutions of nanobody for 2 h at rt in 2% BSA, 25 mM Hepes pH 7.5, 150 mM NaCl, 0.025% DDM; detection with anti-VHH and IRDye800CW; triplicate; apparent KD by one-site specific binding fit; settings: both partners purified
T4 construct: human CD9 (Tspan29), wild type, full length; The construct section lists full-length CD9 with an N-terminal Strep-II tag or an N-terminal Strep3-GFP tag with a TEV site; also called wtCD9-3Strep; source: detergent-purified

[5] = molecular target: T5, endogenous CD9 on HeLa cells (human (endogenous in HeLa), UniProt P21926); assay: binding assay on cells in 96-well plates, infrared fluorescence read-out (anti-VHH, IRDye800CW, Odyssey); HeLa cells seeded in 96-well plates, serial dilutions of nanobody for 2 h at 4°C in 1% BSA, 25 mM Hepes pH 7.2 in DMEM; cells fixed with 4% formaldehyde before detection; triplicate; apparent KD by one-site specific binding fit; settings: one partner purified
T5 construct: CD9 (Tspan29) endogenous on HeLa cells; also called CD9 endogenously expressed on HeLa cells; cell-membrane embedded CD9; source: endogenous, on HeLa cells

full-length EWI-F = molecular target: T6, full-length EWI-F (human, UniProt Q9P2B2 26-879); assay: pull-down; Strep3-GFP-CD9-W6 co-transfected with EWI-F variants in 25 ml HEK293-EBNA cultures; lysis in 1% DDM, 0.5% digitonin; Strep-Tactin resin, washes in 0.08% digitonin, elution with desthiobiotin; SDS-PAGE; settings: partners not purified
T6 construct: human EWI-F, full length, UniprotKB Q9P2B2; All EWI-F constructs were cloned with an N-terminal cystatin signal peptide; Heterogeneously glycosylated; also called CD9-partner 1; prostaglandin F2 receptor negative regulator; source: HEK293-EBNA cells, co-transfected with Strep3-GFP-CD9-W6; in lysate, co-purified (Strep-Tactin, SEC)
T6 sequence (looked up): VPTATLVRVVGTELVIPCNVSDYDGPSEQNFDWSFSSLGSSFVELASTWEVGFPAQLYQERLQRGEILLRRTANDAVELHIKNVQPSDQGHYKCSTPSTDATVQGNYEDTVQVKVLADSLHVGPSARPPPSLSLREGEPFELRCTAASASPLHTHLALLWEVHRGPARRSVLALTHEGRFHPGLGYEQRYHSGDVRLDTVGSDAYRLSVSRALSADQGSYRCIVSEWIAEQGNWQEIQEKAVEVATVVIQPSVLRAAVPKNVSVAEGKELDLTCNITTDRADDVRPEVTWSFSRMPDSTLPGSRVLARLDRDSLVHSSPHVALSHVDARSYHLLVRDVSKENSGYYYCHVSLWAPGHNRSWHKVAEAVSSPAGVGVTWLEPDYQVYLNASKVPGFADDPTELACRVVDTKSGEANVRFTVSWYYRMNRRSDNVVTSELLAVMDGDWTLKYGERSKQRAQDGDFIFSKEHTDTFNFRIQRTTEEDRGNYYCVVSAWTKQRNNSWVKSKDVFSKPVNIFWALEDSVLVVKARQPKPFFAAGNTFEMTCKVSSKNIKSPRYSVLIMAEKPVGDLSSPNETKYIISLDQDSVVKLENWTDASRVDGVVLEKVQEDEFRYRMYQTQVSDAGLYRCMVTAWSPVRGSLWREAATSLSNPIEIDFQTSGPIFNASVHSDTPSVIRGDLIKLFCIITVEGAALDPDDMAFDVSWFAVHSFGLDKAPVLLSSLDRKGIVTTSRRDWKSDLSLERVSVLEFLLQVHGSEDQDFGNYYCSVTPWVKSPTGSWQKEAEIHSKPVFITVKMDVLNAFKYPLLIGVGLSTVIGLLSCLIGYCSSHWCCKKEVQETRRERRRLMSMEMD

B1: anti-CD9 nanobody 4C8 (VHH)
VHH: EVQLVESGGGLVQAGGSLRLSCAASGRTFSDYVMGWFRQAPGKERTFVARIGWSGDLTYYADSVKGRFTISRDNAKNTVYLQMNSLKPEDTAIYYCAADERWGTGGKFDYWGQGTQVTVSS
notes: they are in the deposited structures PDB 6Z1Z (4C8 alone) and PDB 6Z20 (nanobody chain of CD9EC2-4C8); Selected from a phage library (Neviani et al, 2020); The thrombin-cleavable His tag was removed with thrombin; also called Nb 4C8; source: E. coli BL-21 Codon Plus (DE3)-RIL, periplasmic secretion, purified (HisTrap, desalting; thrombin treatment, Superdex75); not shown: His6, C-terminal, cleaved
B1 was tested. Which Kd [1] did it give?
Its Kd is 0.59 nM.

What about the Kd [2] of the same binder?
Its Kd is 0.9 nM.

Does B1 bind [3]?
Result: binds

Does B1 bind [4]?
Result: binds

Does B1 bind [5]?
Result: binds

B2: N-Strep3-GFP-tagged CD9-W6 (natural protein, human, UniProt P21926 1-228, looked up)
chain: T1 chain with C9W, C78W, C79W, C87W, C218W, C219W
notes: human CD9 (Tspan29), full length, all palmitoylated cysteines mutated to tryptophan (CD9-W6); The Strep3-GFP tag is followed by a TEV-protease site; The results speak only of 'Strep-GFP-tagged CD9'; the methods name CD9-W6 for these experiments; also called Strep-GFP-tagged CD9; source: HEK293-EBNA cells, co-transfected with EWI-F variants; in lysate (DDM or DDM/digitonin), Strep-Tactin purified, …
Does B2 bind (full-length EWI-F)?
Result: binds

B3: anti-CD9 nanobody 4E8 (VHH)
VHH: EVQLVESGGRLVRTGGSLRLSCAASGRTFSNYVMGWFRQAPGKEREVVAAITWSGDITWHADFVKGRFTISRDNAKNTVYLQMNSLKPEDTAVYYCAATERWGLRAPADWGSWGQGTQVTVSS
notes: they are in the deposited structure PDB 6Z1V (nanobody chain of CD9EC2-4E8); Differs from 4C8 in CDR2 and CDR3; The thrombin-cleavable tag was not removed before crystallization; also called Nb 4E8; source: E. coli BL-21 Codon Plus (DE3)-RIL, periplasmic secretion, purified (HisTrap, desalting); not shown: His6, C-terminal, kept
What does the source list for B3?
Kd [1]: 32.6 nM; Kd [2]: 2.01 nM; binding result [4]: binds; binding result [5]: binds
